In publication PMC2726290, “Decoding of Methylated Histone H3 Tail by the Pygo-BCL9 Wnt Signaling Complex” (Molecular Cell, 2008):
pKd: −log10 of the molar value.

Tests used:
Assay in all cases: ITC; protein dialysed into 100 mM NaCl, 25 mM Tris-HCl (pH 8.0), 10 uM ZnCl2, 2 mM beta-mercaptoethanol; histone peptides with free PHD or PHD-HD1 complex; one-site model
[1] = target: dPHD-HD1 complex (Drosophila Pygo PHD 747-808 with Lgs HD1 316-350) (Drosophila) (UniProt Q9V9W8)
[2] = target: hPHD-HD1 complex (hPygo1 PHD 333-402 with hBCL9 HD1) (human) (UniProt Q9Y3Y4)
hPHD-HD1 complex (hPygo1 PHD 333-402 with hBCL9 HD1) (human), sequence (Q9Y3Y4 333-402, chain 1 of 2): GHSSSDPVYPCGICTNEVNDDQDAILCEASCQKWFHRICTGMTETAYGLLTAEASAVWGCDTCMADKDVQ
hPHD-HD1 complex (hPygo1 PHD 333-402 with hBCL9 HD1) (human), sequence (O00512 177-205, chain 2 of 2, further chain): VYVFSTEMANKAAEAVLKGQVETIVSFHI

[3] = target: hPygo1 PHD finger (amino acids 333-402), free (human) (UniProt Q9Y3Y4)
hPygo1 PHD finger (amino acids 333-402), free (human), sequence (Q9Y3Y4 333-402): as the sequence (Q9Y3Y4 333-402, chain 1 of 2) above

dPHD-HD1 complex (Drosophila Pygo PHD 747-808 with Lgs HD1 316-350) (Drosophila), sequence (Q9V9W8 747-808, chain 1 of 2): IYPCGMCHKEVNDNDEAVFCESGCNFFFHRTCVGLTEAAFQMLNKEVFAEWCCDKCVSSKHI
dPHD-HD1 complex (Drosophila Pygo PHD 747-808 with Lgs HD1 316-350) (Drosophila), sequence (Q961D9 316-350, chain 2 of 2, further chain): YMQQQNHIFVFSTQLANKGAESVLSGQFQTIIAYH

Row | pKd [1] | pKd [2] | pKd [3] | Substance
1 | 4.89 | 6.05 | 5.62 | H3K4me2 15-mer histone H3 tail peptide (from UniProt P68431 2-16)
2 | 4.64 |  |  | H3K4me3 15-mer histone H3 tail peptide (from UniProt P68431 2-16)
3 | 4.66 | 5.54 | 5.05 | H3K4me1 15-mer histone H3 tail peptide (from UniProt P68431 2-16)
